Measurements reported in publication PMC9214244, “Multivalent Interaction of Beta-Catenin With its Intrinsically Disordered Binding Partner Adenomatous Polyposis Coli” (Frontiers in Molecular Biosciences, 2022).

Tests used:
[1] = molecular target: APCabc with the rigid linker (RL) inserted between residues 1,500 and 1,501, fluorescein-labelled at Cys 1501 (UniProt P25054); test: stopped-flow fluorescence; association: 25 nM fluorescein-labelled APC mixed 1:1 by volume with 250-2,000 nM β-catenin (pseudo first-order); dissociation: pre-formed 1:1 complex (200 nM) mixed with 10 times molar excess of the same APC construct; PBS, 1 mM DTT; 15°C
[2] = molecular target: pAPCabc with the rigid linker (RL) inserted between residues 1,500 and 1,501, fluorescein-labelled at Cys 1501 (UniProt P25054); test: as above
[3] = molecular target: APCabc, third 20aa repeat (R3) region of APC with subdomains a, b and c, fluorescein-labelled at Cys 1501 (UniProt P25054); test: as above
[4] = molecular target: APCbc, APC R3 subdomains b and c (residues 1,483–1,533), fluorescein-labelled at Cys 1501 (UniProt P25054); test: as above
[5] = molecular target: pAPCabc with the polyproline linker (PP) inserted between residues 1,500 and 1,501, fluorescein-labelled at Cys 1501 (UniProt P25054); test: as above
[6] = molecular target: pAPCabc, full-length R3 domain APCabc containing all five phosphomimetics, fluorescein-labelled at Cys 1501 (UniProt P25054); test: as above
[7] = molecular target: APCabc with the flexible linker (FL) inserted between residues 1,500 and 1,501, fluorescein-labelled at Cys 1501 (UniProt P25054); test: as above
[8] = molecular target: APCabc with the flexible linker (FL) inserted between residues 1,478 and 1,479, fluorescein-labelled at Cys 1501 (UniProt P25054); test: as above
[9] = molecular target: pAPCabc with the flexible linker (FL) inserted between residues 1,500 and 1,501, fluorescein-labelled at Cys 1501 (UniProt P25054); test: as above
[10] = molecular target: pAPCabc D1486S, fluorescein-labelled at Cys 1501 (UniProt P25054); test: as above
[11] = molecular target: APCabc with the rigid linker (RL) inserted between residues 1,500 and 1,501, fluorescein-labelled at Cys 1501 (UniProt P25054); test: fluorescence polarisation; fluorescence anisotropy; β-catenin titrated into 10 nM fluorescein-labelled APC construct; PBS, 1 mM DTT; 15°C; adjusted anisotropy fitted to a Hill equation
[12] = molecular target: pAPCabc with the flexible linker (FL) inserted between residues 1,500 and 1,501, fluorescein-labelled at Cys 1501 (UniProt P25054); test: as above
[13] = molecular target: pAPCabc D1486S, fluorescein-labelled at Cys 1501 (UniProt P25054); test: as above

Chain of armadillo (ARM) repeat domain of human β-catenin (residues 134–671) (P35222 other isoform, or with tags, fused parts or gaps): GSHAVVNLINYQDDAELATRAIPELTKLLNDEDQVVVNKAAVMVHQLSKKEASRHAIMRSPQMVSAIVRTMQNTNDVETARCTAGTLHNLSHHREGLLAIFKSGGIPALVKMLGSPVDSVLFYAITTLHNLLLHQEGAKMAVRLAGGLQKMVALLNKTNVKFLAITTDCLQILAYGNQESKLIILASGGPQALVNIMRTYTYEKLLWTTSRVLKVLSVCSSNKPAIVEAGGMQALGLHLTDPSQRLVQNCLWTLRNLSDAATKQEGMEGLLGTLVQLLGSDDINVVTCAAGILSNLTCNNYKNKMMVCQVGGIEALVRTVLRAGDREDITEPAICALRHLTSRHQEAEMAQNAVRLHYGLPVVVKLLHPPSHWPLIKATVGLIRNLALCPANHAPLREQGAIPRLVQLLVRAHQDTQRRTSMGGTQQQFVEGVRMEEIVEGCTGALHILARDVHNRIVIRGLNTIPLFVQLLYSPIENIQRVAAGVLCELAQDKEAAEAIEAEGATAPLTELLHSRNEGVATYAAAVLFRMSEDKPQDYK

koff fast [1]: 0.89 s⁻¹ | koff slow [1]: 0.223 s⁻¹ | kon [1]: 1.81e+07 M⁻¹ s⁻¹ | time constant τ (from the fast off-rate) [1]: 0.8 s | koff fast [2]: 0.21 s⁻¹ | koff slow [2]: 0.0122 s⁻¹ | kon [2]: 1.02e+08 M⁻¹ s⁻¹ | time constant τ (from the fast off-rate) [2]: 3.52 s | koff fast [3]: 0.46 s⁻¹ | koff slow [3]: 0.11 s⁻¹ | kon [3]: 4.92e+07 M⁻¹ s⁻¹ | time constant τ (from the fast off-rate) [3]: 1.54 s | koff fast [4]: 0.73 s⁻¹ | kon [4]: 1.48e+07 M⁻¹ s⁻¹ | time constant τ (from the fast off-rate) [4]: 0.96 s | koff fast [5]: 0.44 s⁻¹ | koff slow [5]: 0.018 s⁻¹ | kon [5]: 8.97e+07 M⁻¹ s⁻¹ | time constant τ (from the fast off-rate) [5]: 1.59 s | koff fast [6]: 0.07 s⁻¹ | koff slow [6]: 0.0021 s⁻¹ | kon [6]: 2.07e+08 M⁻¹ s⁻¹ | time constant τ (from the fast off-rate) [6]: 9.51 s | koff fast [7]: 0.45 s⁻¹ | koff slow [7]: 0.1 s⁻¹ | kon [7]: 2.41e+07 M⁻¹ s⁻¹ | time constant τ (from the fast off-rate) [7]: 1.54 s | koff fast [8]: 0.77 s⁻¹ | koff slow [8]: 0.177 s⁻¹ | kon [8]: 8.35e+07 M⁻¹ s⁻¹ | time constant τ (from the fast off-rate) [8]: 0.9 s | koff fast [9]: 0.16 s⁻¹ | koff slow [9]: 0.0085 s⁻¹ | kon [9]: 1.01e+08 M⁻¹ s⁻¹ | time constant τ (from the fast off-rate) [9]: 4.45 s | koff fast [10]: 2.89 s⁻¹ | koff slow [10]: 0.4 s⁻¹ | kon [10]: 1.51e+08 M⁻¹ s⁻¹ | time constant τ (from the fast off-rate) [10]: 0.24 s | Kd [11]: 31.2 nM | Kd [12]: 10.9 nM | Kd [13]: 21.4 nM
Substance: armadillo (ARM) repeat domain of human β-catenin (residues 134–671) (from UniProt P35222 134-671) (domain or fragment)
